Assays:
5-hydroxy-L-norvaline [1] = experiment: Enzyme assay, aminotransferase (step A4), cell lysates; format: biochemical; set-up: key: +: measureable activity detected in the assay; −: no measurable activity detected in the assay; details: BDO biosynthetic pathway step A4
Experimental: (§1) Enzyme expression and crude lysate preparation. The enzymatic activity of each candidate enzyme is evaluated, first in E. coli and subsequently in C. glutamicum. It will be apparent to one of skill in the art that the expression and lysate preparations may need to be modified depending on the host cell and recombinant gene of interest.
(§2) E. coli: E. coli strains transformed with expression clones, for example, pUC18 or MB4124 based clones having a medium strong constitutive promoter regulating the recombinant gene of interest, are grown aerobically in LB medium (Difco) containing the appropriate antibiotic(s). At an OD600 of 0.5, IPTG is added to a final concentration of 0.25 mM. The cultures are grown to a final OD600 of 1.5 at which time the cells are collected and harvested by centrifugation. Cell pellets are resuspended in BugBuster (Novagen) reagent containing benzonase and lysozyme. Alternatively, E. coli strains transformed with expression clones, are grown overnight aerobically at 37° C. in BHI containing the appropriate antibiotic(s). 300 μL of fresh overnight culture is used to inoculate 2.7 mL BHI containing 0.25 mM IPTG and the appropriate antibiotic. The cultures are grown aerobically for 4-5 hours at 37° C. at which time the cells are collected and harvested by centrifugation. Cell pellets are frozen at −80° C. for at least 15 minutes, then thawed and resuspended in BugBuster (Novagen) reagent. Lysis and lysate collection are performed according to the manufacturer's instructions and, for example, may involve use of a sonicator and/or French press. Cleared lysates are stored on ice until enzyme assays are performed.
C. glutamicum: C. glutamicum strains transformed with MB4124 expression clones containing the recombinant gene of interest are grown aerobically in BHI broth supplemented with the proper antibiotic(s). At an OD600 of 0.5, IPTG is added to a final concentration of 0.25 mM. The cultures are grown to a final OD600 of 1.5 at which time the cells are collected and harvested by centrifugation. The pellet is washed once in one volume of water and resuspended in lysis buffer (1.0 ml 1.0 M HEPES buffer, pH 7.5, 0.5 ml 1M KOH, 10 μl 0.5M EDTA, protease inhibitor cocktail, water to 5 ml; the final pH will vary depending on the individual enzyme being tested) and one volume of 0.1 mm acid washed glass beads. The mixture is repeatedly alternately vortexed and held on ice for 15 seconds, eight times. After centrifugation for 5 min at 4,000 rpm, the supernatant lysate is removed and respun for 20 min at 10,000 rpm. Alternatively, C. glutamicum strains transformed with MB4124 expression clones containing the recombinant gene of interest are grown aerobically overnight in BHI broth supplemented with the proper antibiotic(s). Five mL of fresh overnight culture is used to inoculate 200 mL BHI containing 0.25 mM IPTG and the appropriate antibiotic. The cultures are grown aerobically at 30° C. for 5-7 hours at which time the cells are collected and harvested by centrifugation at 4° C. The pellet is resuspended in 15 mL ice cold 39 mM KH2PO4, 61 mM K2HPO4, 0.5 M KCl and lysed using a BioSpec BeadBeater and following the manufacturer's instructions. […]
(§3) Protein Assays. Protein concentrations in lysates are determined according to the methods of Bradford et al. (Anal. Biochem. 72:248-254 [1976]) or by the method of Smith et al. (Anal. Biochem. 150(1):76-85 [1985]) and lysates are assayed according to the methods below. […]

5-hydroxy-L-norvaline [2] = experiment: In vitro substrate conversion assay, step A4; format: biochemical; set-up: key: +: measureable activity detected in the assay; −: no measurable activity detected in the assay; details: BDO biosynthetic pathway step A4
Experimental: (§4) In Vitro Substrate Conversion. Most of the enzyme assays described above are based on recording changes in absorbance at a given wavelength. In addition to such spectrophotometric readouts, these assays can also be analyzed by more direct methods using an endpoint assay where the reaction is terminated after a given period of time and the mixture is analyzed via HPLC or LC-MS methods.
(§5) The aldehyde dehydrogenase linked reaction was used for step A5.

5-hydroxy-L-norvaline [3] = experiment: Bioconversion (feeding) assay, step A4; format: cell-based; set-up: key: +: measureable activity detected in the assay; −: no measurable activity detected in the assay; details: BDO biosynthetic pathway step A4
Experimental: (§6) Bioconversion assays. The activity of a candidate enzyme towards a given substrate can also be evaluated in vivo using a simple feeding assay. A strain expressing the candidate enzyme is grown in the presence of the substrate for which activity is desired. Samples of the culture are removed periodically and the cells are removed via centrifugation. The culture supernatant is then analyzed (e.g., by LC-MS) to determine how much of the substrate has been removed and how much of a given product is present.
as §5

4-hydroxybutanal [4] = experiment: Enzyme assay, oxidoreductase (step A6), cell lysates; format: biochemical; set-up: key: +: measureable activity detected in the assay; −: no measurable activity detected in the assay; details: BDO biosynthetic pathway step A6
Experimental: as §1
as §2, with “performed. […]” for “performed.”
as §3

4-hydroxybutanal [5] = experiment: In vitro substrate conversion assay, step A6; format: biochemical; set-up: key: +: measureable activity detected in the assay; −: no measurable activity detected in the assay; details: BDO biosynthetic pathway step A6
Experimental: as §4, §5

4-hydroxybutanal [6] = experiment: Bioconversion (feeding) assay, step A6; format: cell-based; set-up: key: +: measureable activity detected in the assay; −: no measurable activity detected in the assay; details: BDO biosynthetic pathway step A6
Experimental: as §6, §5

[7] = system: 5-hydroxy-2-oxopentanoate; experiment: Enzyme assay, decarboxylase (step A5), aldehyde dehydrogenase linked reaction; format: biochemical; set-up: key: +: measureable activity detected in the assay; −: no measurable activity detected in the assay; details: BDO biosynthetic pathway step A5
Outline: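 Crude lysates of E. coli or C. glutamicum expressing the candidate decarboxylase (0.25 mM IPTG induction) were assayed against vector-only control lysates, using natural substrate and pathway metabolite. Decarboxylation was coupled to aldehyde dehydrogenase converting the aldehyde product to acid with NAD+ reduction, followed as absorbance increase at 340 nm.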

[8] = system: 5-hydroxy-2-oxopentanoate; experiment: In vitro substrate conversion assay, step A5; format: biochemical; set-up: key: +: measureable activity detected in the assay; −: no measurable activity detected in the assay; details: BDO biosynthetic pathway step A5
Experimental: as §4, §5

[9] = system: 5-hydroxy-2-oxopentanoate; experiment: Bioconversion (feeding) assay, step A5; format: cell-based; set-up: key: +: measureable activity detected in the assay; −: no measurable activity detected in the assay; details: BDO biosynthetic pathway step A5
Experimental: as §6, §5

[10] = system: 5-hydroxy-2-oxopentanoate (5-HOP); experiment: Kinetics of purified His-tagged KdcAL1 on 5-HOP (aldehyde dehydrogenase linked reaction); format: biochemical
Experimental: (§7) Aldehyde Dehydrogenase linked reaction: In another example of a coupled assay, the decarboxylation of a substrate is linked to the activity of an aldehyde dehydrogenase (Sigma catalog number A6338) reaction that converts the aldehyde product to a carboxylic acid with the concomitant reduction of NAD+. The overall activity of the coupled reactions is assessed spectrophotometrically by measuring the increase in absorbance at 340 nm which corresponds to the NAD+ reduction. One enzyme unit is defined as the amount of enzyme that catalyzes the decarboxylation of 1 μmol of substrate per minute.
(§8) Standard molecular biology techniques were used to create an E. coli expression construct encoding KdcAL1 having three histidine (His) residues attached to its C-terminus. This His-tagged enzyme was over-expressed in E. coli, purified and assayed to assess its activity towards a natural substrate, 3-methyl-2-oxopentanoate (3-MOP) and its BDO pathway substrate, 5-hydroxy-2-oxopentanoate (5-HOP). The purified enzyme was assayed as described in example 3 above (step A5, Aldehyde dehydrogenase linked reaction). […] This Vmax is about 10 times lower than the rate of 3-MOP activity.

[11] = system: 3-methyl-2-oxopentanoate (3-MOP); experiment: Kinetics of purified His-tagged KdcAL1 on 3-MOP (aldehyde dehydrogenase linked reaction); format: biochemical; details: substrate 3-MOP; purified His-tagged enzyme
Experimental: as §7, §8

B1: BcaTPf: Branched-chain-amino-acid transaminase from Pseudomonas fluorescens, step A4 enzyme candidate, SEQ ID NO. 58 (protein, listed as Pseudomonas fluorescens)
chain: MGNESINWDKLGFDYIKTDKRFLQVWKNGEWQEGTLTDDNVLHISEGSTALHYGQQCFEGLKAYRCKDGSINLFRPDQNAARMQRSCARLLMPHVPTDVFIDACKQVVKANEHFIPPYGSGGALYLRPFVIGTGDNIGVRTAPEFIFSVFCIPVGAYFKGGLVPHNFQISTFDRAAPQGTGAAKVGGNYAASLMPGSEAKKAGFADAIYLDPMTHSKIEEVGSANFFGITHDNQFITPKSPSVLPGITRLSLIELAKTRLGLDVVEGEVFIDKLDQFKEAGACGTAAVISPIGGIQYNGKLHVFHSETEVGPITQKLYKELTGVQTGDVEAPQGWIVKV
- Enzyme Assay (5-hydroxy-L-norvaline [1]): +
- In Vitro Substrate Conversion Assay (5-hydroxy-L-norvaline [2]): +
- Bioconversion Assay (5-hydroxy-L-norvaline [3]): +

B2: ADH6Sc: Alcohol dehydrogenase from Saccharomyces cerevisiae, step A6 enzyme candidate, SEQ ID NO. 47 (protein, listed as Saccharomyces cerevisiae)
chain: MSYPEKFEGIAIQSHEDWKNPKKTKYDPKPFYDHDIDIKIEACGVCGSDIHCAAGHWGNMKMPLVVGHEIVGKVVKLGPKSNSGLKVGQRVGVGAQVFSCLECDRCKNDNEPYCTKFVTTYSQPYEDGYVSQGGYANYVRVHEHFVVPIPENIPSHLAAPLLCGGLTVYSPLVRNGCGPGKKVGIVGLGGIGSMGTLISKAMGAETYVISRSSRKREDAMKMGADHYIATLEEGDWGEKYFDTFDLIVVCASSLTDIDFNIMPKAMKVGGRIVSISIPEQHEMLSLKPYGLKAVSISYSALGSIKELNQLLKLVSEKDIKIWVETLPVGEAGVHEAFERMEKGDVRYRFTLVGYDKEFSD
- Enzyme Assay (4-hydroxybutanal [4]): +
- In Vitro Substrate Conversion Assay (4-hydroxybutanal [5]): +
- Bioconversion Assay (4-hydroxybutanal [6]): +

B3: KdcALl: Branched-chain alpha-keto acid decarboxylase from Lactococcus lactis, step A5 enzyme candidate, SEQ ID NO. 36; His-tagged when purified (protein, listed as Lactococcus lactis)
chain: MYTVGDYLLDRLHELGIEEIFGVPGDYNLQFLDQIISREDMKWIGNANELNASYMADGYARTKKAAAFLTTFGVGELSAINGLAGSYAENLPVVEIVGSPTSKVQNDGKFVHHTLADGDFKHFMKMHEPVTAARTLLTAENATYEIDRVLSQLLKERKPVYINLPVDVAAAKAEKPALSLEKESSTTNTTEQVILSKIEESLKNAQKPVVIAGHEVISFGLEKTVTQFVSETKLPITTLNFGKSAVDESLPSFLGIYNGKLSEISLKNFVESADFILMLGVKLTDSSTGAFTHHLDENKMISLNIDEGIIFNKVVEDFDFRAVVSSLSELKGIEYEGQYIDKQYEEFIPSSAPLSQDRLWQAVESLTQSNETIVAEQGTSFFGASTIFLKSNSRFIGQPLWGSIGYTFPAALGSQIADKESRHLLFIGDGSLQLTVQELGLSIREKLNPICFIINNDGYTVEREIHGPTQSYNDIPMWNYSKLPETFGATEDRVVSKIVRTENEFVSVMKEAQADVNRMYWIELVLEKEDAPKLLKKMGKLFAEQNK
modifications: His-tag when purified
- Enzyme Assay [7]: +
- In Vitro Substrate Conversion Assay [8]: +
- Bioconversion Assay [9]: +
- Vmax for 5-HOP lower than the rate of 3-MOP activity ([10]; 5-HOP versus 3-MOP): about 10 times
- Km ([10]; substrate 5-HOP, purified His-tagged enzyme): 49 mM
- Vmax ([10]; substrate 5-HOP, purified His-tagged enzyme, FIG. 24): approximately 0.15 U/mg
- Km [11]: 1.3 mM

Reference: patent US20110014669A1, “Production of 1,4 Butanediol in a Microorganism” (Microbia, Inc., priority 2009, published 2011)
